Experiments:
Conditions in all cases: both partners purified
amyloid‐β40 (Aβ40) [1] = biological target: T1, amyloid‐β40 (Aβ40); assay: ITC; APP-C31 600 µM in the syringe, Aβ40 30 µM in the cell; 20 mM HEPES, pH 7.4; 10 °C; one set of sites model
T1 construct: Amyloid-beta 40, cut from amyloid precursor protein (APP) by beta- and gamma-secretases; numbers count on: the Aβ peptide (Asp1 to Val40); Unlabelled peptide; Metal-treated samples (CuCl2, ZnCl2) are told apart by the assay; also called metal-free Aβ40; Cu(II)–Aβ40 and Zn(II)–Aβ40 when treated with CuCl2 or ZnCl2; source: bought: Peptide Institute (HPLC-purified) or Anaspec

amyloid‐β40 (Aβ40) [2] = biological target: T1, amyloid‐β40 (Aβ40); assay: native MS; ESI–MS; APP-C31 100 µM incubated with Aβ40 100 µM, 20 mM ammonium acetate, pH 7.3, 37 °C, 2 h, no agitation; diluted tenfold before injection; no metal
[3] = biological target: T2, uniformly ^15N‐labeled Aβ40 (uniformly 15N-labeled); assay: NMR titration; 2D 1H–15N HSQC (700 MHz); 15N-labeled Aβ40 40 µM, CuCl2 20 µM, APP-C31 200 µM; 20 mM HEPES, pH 7.4; 10 °C
T2 construct: Amyloid-beta 40, cut from amyloid precursor protein (APP); numbers count on: the Aβ peptide (Asp1 to Val40); also called ^15N‐labeled Aβ40 monomer; source: bought: rPeptide Inc
T2 sequence (peptide, as listed by the source): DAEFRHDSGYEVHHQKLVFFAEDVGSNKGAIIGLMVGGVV

T1 sequence (peptide, as listed by the source): as above

- Kd (amyloid‐β40 (Aβ40) [1]): 150 ± 11.4 µM
- dH (amyloid‐β40 (Aβ40) [1]): -1.5 ± 0.3 kcal/mol
- stoichiometry N (amyloid‐β40 (Aβ40) [2]): 1
- binding result [3]: binds
B1: APP‐C31 (APP_(665–695)) (peptide)
peptide: AAVTPEERHLSKMQQNGYENPTYKFFEQMQN
notes: C-terminal 31 residues of amyloid precursor protein (APP), produced by caspase cleavage; residues 665-695; source: bought: AnaSpec
